We go through 16 molecules from US20230002460A1 (YUHAN, published 2023).

To fix the notation:
B1: long-acting GDF15 fusion protein (dimer) FM2 + Fc_hole (ΔN3, G4N, D5S, H6T) (Fc fusion)
chain 1: APALAGGPSVFLFPPKPKDTLMISRTPEVTCVVVDVSHEDPEVKFNWYVDGVEVHNAKTKPREEQYNSTYRVVSVLTVLHQDWLNGKEYKCKVSNKALPAPIEKTISKAKGQPREPQVYTLPPSREEMTKNQVSLWCLVKGFYPSDIAVEWESNGQPENNYKTTPPVLDSDGSFFLYSKLTVDKSRWQQGNVFSCSVMHEALHNHYTQKSLSLSPGKGGGGSGGGGSGGGGSGGGGSGGGGSNSTCPLGPGRCCRLHTVRASLEDLGWADWVLSPREVQVTMCIGACPSQFRAANMHAQIKTSLHRLKPDTVPAPCCVPASYNPMVLIQKTDTGVSLQTYDDLLAKDCHCI
chain 2: not shown
B2: long-acting GDF15 fusion protein (dimer) FM11 + Fc_hole (ΔN3, G4N, D5S, H6T, S64R) (Fc fusion)
chain 1: B1 chain 1 with S303R
chain 2: not shown
B3: long-acting GDF15 fusion protein (dimer) FM3 + Fc_hole (ΔN2, R21N) (Fc fusion)
chain 1: APALAGGPSVFLFPPKPKDTLMISRTPEVTCVVVDVSHEDPEVKFNWYVDGVEVHNAKTKPREEQYNSTYRVVSVLTVLHQDWLNGKEYKCKVSNKALPAPIEKTISKAKGQPREPQVYTLPPSREEMTKNQVSLWCLVKGFYPSDIAVEWESNGQPENNYKTTPPVLDSDGSFFLYSKLTVDKSRWQQGNVFSCSVMHEALHNHYTQKSLSLSPGKGGGGSGGGGSGGGGSGGGGSGGGGSNGDHCPLGPGRCCRLHTVNASLEDLGWADWVLSPREVQVTMCIGACPSQFRAANMHAQIKTSLHRLKPDTVPAPCCVPASYNPMVLIQKTDTGVSLQTYDDLLAKDCHCI
chain 2: not shown
B4: long-acting GDF15 fusion protein (dimer) FM12 + Fc_hole (ΔN2, R21N, S64R) (Fc fusion)
chain 1: B3 chain 1 with S304R
chain 2: not shown
B5: long-acting GDF15 fusion protein (dimer) FM1 + Fc_hole (ΔN3, WS insertion, G4N, D5S, H6T) (Fc fusion)
chain 1: APALAGGPSVFLFPPKPKDTLMISRTPEVTCVVVDVSHEDPEVKFNWYVDGVEVHNAKTKPREEQYNSTYRVVSVLTVLHQDWLNGKEYKCKVSNKALPAPIEKTISKAKGQPREPQVYTLPPSREEMTKNQVSLWCLVKGFYPSDIAVEWESNGQPENNYKTTPPVLDSDGSFFLYSKLTVDKSRWQQGNVFSCSVMHEALHNHYTQKSLSLSPGKGGGGSGGGGSGGGGSGGGGSGGGGSWSNSTCPLGPGRCCRLHTVRASLEDLGWADWVLSPREVQVTMCIGACPSQFRAANMHAQIKTSLHRLKPDTVPAPCCVPASYNPMVLIQKTDTGVSLQTYDDLLAKDCHCI
chain 2: not shown
B6: long-acting GDF15 fusion protein (dimer) FM10 + Fc_hole (ΔN3, WS insertion, G4N, D5S, H6T, S64R) (Fc fusion)
chain 1: B5 chain 1 with S305R
chain 2: not shown
B7: long-acting GDF15 fusion protein (dimer) FWT + Fc_hole (ΔN2) (Fc fusion)
chain 1: B3 chain 1 with N261R
chain 2: not shown
B8: long-acting GDF15 fusion protein (dimer) FM4-1 + Fc_hole (ΔN2, N56S, D103S) (Fc fusion)
chain 1: B3 chain 1 with N261R, N296S, D343S
chain 2: not shown
B9: long-acting GDF15 fusion protein (dimer) FM4-2 + Fc_hole (ΔN2, D103L) (Fc fusion)
chain 1: B3 chain 1 with N261R, D343L
chain 2: not shown
B10: long-acting GDF15 fusion protein (dimer) FM4-3 + Fc_hole (ΔN2, N56L) (Fc fusion)
chain 1: B3 chain 1 with N261R, N296L
chain 2: not shown
B11: long-acting GDF15 fusion protein (dimer) FM4 + Fc_hole (ΔN2, N56C, D103C) (Fc fusion)
chain 1: B3 chain 1 with N261R, N296C, D343C
chain 2: not shown
B12: long-acting GDF15 fusion protein (dimer) FM9-6 + Fc_hole (ΔN2, S64R; linker GS(EAAAK)5) (Fc fusion)
chain 1: APEAAGGPSVFLFPPKPKDTLMISRTPEVTCVVVDVSHEDPEVKFNWYVDGVEVHNAKTKPREEQYASTYRVVSVLTVLHQDWLNGKEYKCKVSNKALPAPIEKTISKAKGQPREPQVYTLPPSREEMTKNQVSLWCLVKGFYPSDIAVEWESNGQPENNYKTTPPVLDSDGSFFLYSKLTVDKSRWQQGNVFSCSVMHEALHNHYTQKSLSLSPGKGSEAAAKEAAAKEAAAKEAAAKEAAAKNGDHCPLGPGRCCRLHTVRASLEDLGWADWVLSPREVQVTMCIGACPSQFRAANMHAQIKTRLHRLKPDTVPAPCCVPASYNPMVLIQKTDTGVSLQTYDDLLAKDCHCI
chain 2: APEAAGGPSVFLFPPKPKDTLMISRTPEVTCVVVDVSHEDPEVKFNWYVDGVEVHNAKTKPREEQYASTYRVVSVLTVLHQDWLNGKEYKCKVSNKALPAPIEKTISKAKGQPREPQVYTLPPSREEMTKNQVSLSCAVKGFYPSDIAVEWESNGQPENNYKTTPPVLDSDGSFFLVSKLTVDKSRWQQGNVFSCSVMHEALHNHYTQKSLSLSPGK
B13: long-acting GDF15 fusion protein (dimer) FM9 + Fc_hole (ΔN2, S64R) (Fc fusion)
chain 1: B3 chain 1 with N261R, S304R
chain 2: not shown
B14: long-acting GDF15 fusion protein (dimer) FM13 + Fc_hole (ΔN2, S64N) (Fc fusion)
chain 1: B3 chain 1 with N261R, S304N
chain 2: not shown
B15: long-acting GDF15 fusion protein (dimer) FM15 + Fc_hole (ΔN2, S64E) (Fc fusion)
chain 1: B3 chain 1 with N261R, S304E
chain 2: not shown
B16: long-acting GDF15 fusion protein (dimer) FM14 + Fc_hole (ΔN2, S64D) (Fc fusion)
chain 1: B3 chain 1 with N261R, S304D
chain 2: not shown

Positions count from the first letter of the chain named. Numbers in names are those of the source.

The target in the first test is T1, GDF15 receptors GFRAL and RET, overexpressed together on HEK293 cells (UniProt Q6UXV0 19-394; P07949 29-1114, limits assumed). The experiment in a line: cell-based or functional assay.
T1 sequence (Q6UXV0 19-394 limits assumed, chain 1 of 2): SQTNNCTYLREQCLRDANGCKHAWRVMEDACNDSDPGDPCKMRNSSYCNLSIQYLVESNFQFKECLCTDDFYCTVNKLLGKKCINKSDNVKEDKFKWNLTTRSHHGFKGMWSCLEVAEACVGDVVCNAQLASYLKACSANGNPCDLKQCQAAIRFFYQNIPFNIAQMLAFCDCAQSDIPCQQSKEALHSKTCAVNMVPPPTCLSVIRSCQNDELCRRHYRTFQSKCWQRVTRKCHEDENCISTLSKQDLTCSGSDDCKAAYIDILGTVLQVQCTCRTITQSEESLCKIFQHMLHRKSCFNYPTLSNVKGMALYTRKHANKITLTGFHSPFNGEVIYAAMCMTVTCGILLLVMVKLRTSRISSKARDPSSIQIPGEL
T1 sequence (P07949 29-1114 limits assumed, chain 2 of 2): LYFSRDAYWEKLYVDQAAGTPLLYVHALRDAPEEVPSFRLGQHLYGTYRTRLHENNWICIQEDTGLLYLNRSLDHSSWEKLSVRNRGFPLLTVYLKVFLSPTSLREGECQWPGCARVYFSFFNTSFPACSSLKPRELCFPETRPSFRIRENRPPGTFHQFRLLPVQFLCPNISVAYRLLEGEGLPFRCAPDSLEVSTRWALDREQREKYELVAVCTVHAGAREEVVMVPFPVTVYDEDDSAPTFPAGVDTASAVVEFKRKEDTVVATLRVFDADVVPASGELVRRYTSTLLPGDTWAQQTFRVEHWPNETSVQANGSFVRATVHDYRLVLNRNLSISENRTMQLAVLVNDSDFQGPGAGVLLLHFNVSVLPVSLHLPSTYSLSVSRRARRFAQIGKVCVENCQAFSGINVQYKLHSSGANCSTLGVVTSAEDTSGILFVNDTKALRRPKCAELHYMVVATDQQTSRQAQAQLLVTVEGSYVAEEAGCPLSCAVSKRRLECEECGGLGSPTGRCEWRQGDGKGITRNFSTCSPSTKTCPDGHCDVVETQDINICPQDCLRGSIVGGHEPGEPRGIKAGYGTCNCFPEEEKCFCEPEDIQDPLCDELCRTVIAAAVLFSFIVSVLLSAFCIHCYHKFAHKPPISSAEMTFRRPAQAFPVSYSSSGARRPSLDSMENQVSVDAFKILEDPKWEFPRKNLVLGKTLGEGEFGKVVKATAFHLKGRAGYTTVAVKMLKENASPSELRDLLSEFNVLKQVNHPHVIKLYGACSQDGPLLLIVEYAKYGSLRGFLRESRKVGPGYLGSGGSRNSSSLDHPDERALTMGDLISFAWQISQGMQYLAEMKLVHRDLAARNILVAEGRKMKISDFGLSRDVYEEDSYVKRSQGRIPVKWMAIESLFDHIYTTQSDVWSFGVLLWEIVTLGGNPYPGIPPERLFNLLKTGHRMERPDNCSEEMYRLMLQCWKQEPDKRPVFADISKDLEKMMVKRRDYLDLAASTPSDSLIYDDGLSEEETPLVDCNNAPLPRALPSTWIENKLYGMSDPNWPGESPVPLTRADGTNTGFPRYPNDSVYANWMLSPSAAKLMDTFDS
Broadly, the EC50 is the concentration needed to bring the measured effect to its halfway point. A higher EC50 goes with weaker potency. As for B1, a half-maximal response (EC50) required 3.9 nM and the “Emax (%)” value was 100%.
Take B2: a half-maximal response (EC50) required 2.9 nM and the “Emax (%)” value amounted to 270%.
As to B3, the “EC50” value came out at 3.3 nM and the “Emax (%)” value worked out at 100%.
Turning to B4, a half-maximal response (EC50) required 5.9 nM and the “Emax (%)” value was 221%.
For the molecule B5, a half-maximal effect (EC50) was put at 1.7 nM and the “Emax (%)” value is 100%.
On to B6, for which the “EC50” value was determined as 2.3 nM and the “Emax (%)” value was 267%.

The next test concerns the target T1, GDF15 receptors GFRAL and RET, …. As to the kind of experiment: cell-based or functional assay. This is another data set of the same source.
In the case of B7, the “EC50” value worked out at 5.4 nM and the “Emax (%) [relative to FWT 100%]” value amounted to 100%.
For B8, a half-maximal response (EC50) required 8.9 nM and the “Emax (%) [relative to FWT 100%]” value turned out to be 86.4%.
B9: the midpoint of the response, the EC50, lay at 10.6 nM and the “Emax (%) [relative to FWT 100%]” value was found to be 110%.
In the case of B10, the “EC50” value is 140 nM and the “Emax (%) [relative to FWT 100%]” value is 34.3%.
Turning to B11, the concentration giving a half-maximal response (EC50) is 3.6 nM and the “Emax (%) [relative to FWT 100%]” value worked out at 140%.

Another test has the same target. The experiment in a line: cell-based or functional assay. The source holds these as a separate data set.
Regarding B12, a half-maximal response (EC50) required 6.3 nM and the “Emax (%)” value is 100%.

For the next test the target is unchanged. The experiment in a line: cell-based or functional assay. This is another data set of the same source.
As for B7, a half-maximal effect (EC50) was put at 7.3 nM and the “Emax (%) [relative to FWT 100%]” value was determined as 100%.
For B13, the 50% effective concentration (EC50) was determined as 5 nM and the “Emax (%) [relative to FWT 100%]” value came to 123%.
As for B14, the “EC50” value was found to be 9.6 nM and the “Emax (%) [relative to FWT 100%]” value turned out to be 93.3%.
Regarding B15, the “EC50” value stood at 33.6 nM and the “Emax (%) [relative to FWT 100%]” value worked out at 41%.
For the molecule B16, the “EC50” value worked out at 7.9 nM and the “Emax (%) [relative to FWT 100%]” value was 48.2%.

The target is the same in another test. The experiment in a line: cell-based or functional assay. This is another data set of the same source.
With B7, the concentration for a half-maximal effect (EC50) is 7 nM and the “Emax (%) [relative to FWT 100%]” value was found to be 100%.
Regarding B11, the response was half-maximal at 3.4 nM (EC50) and the “Emax (%) [relative to FWT 100%]” value was found to be 133%.
